The nature of this data set: soluble on expression in E. coli; label from the status in PepcDB or PDB records.
As to “MSLSTQSEAALEAGLIATLRQMDYEYVQIVEEDNLYANFKRQLEIHNRKRLEEHGRTEFTAEEFEKILIYLEGGTRFEKAKKLRDLYPLDTADGQRIWVEFLNRQQWCQNEFQVSNQITVEGRKKCRYDVTILINGLPLVQIELKRRGVELKQAYNQIQRYHKTSFHGLFDYIQLFVISNGVNTRYFANNPNSGYKFTFNWTDAANHPFNELDKFAVFFLEKCTLGKIIGKYIVLHEGDKCLMVLRPYQFYAVEKILDRVQNSNDNGYIWHTTGAGKTLTSFKAAQLVSELDDVDKVMFVVDRHDLDTQTQSEYEAFEPGAVDSTDNTDELVKRLQSNSKIIITTIQKLNAAVSKTWYSSKIDAIRHSRIVMIFDECHRSHFGDSHKKIMKFFGNAQIFGFTGTPIFTENAVDGHTTKEIFGNCLHKYLIKDAIADENVLGFLVEYYHGNEIVDNDNQARMEEIAKFILNNFNKSTFDGEFDALFAVQSVPMLIRYYKIFRSLNPKIRIGAVFTYAANNSQDDEQTGMGTGQYAKESVGEADELQAIMDDYNENFGTSFTTENFRAYYDDINLRMKKKKADMKPLDLCLVVGMFLTGFDSKKLNTLYVDKNMEYHGLLQAFSRTNRVLNEKKRFGKIVCFRDLKNNVDTSIKLFSNSDNPEDIVRPPFEKVKQEYKSLSTDFLQKYPTPSSIDFLQSENDKKNFVLAFRDIIRKHAEIQIYEDYSEDAEDLGMTEQQFNDYKSKYLDITVGFIDPPAAPSTVAEDPVPYGNNQGLEDIDFCLELLHSDIINVAYILALINDLDPYSDDYSEKRQNIIDTMIKDAGMRGKAKLIDGFIKKNVDEDKENFMNGRNKADGTNELEERLNQYIVSERNKAVNDLADEEQISAEVLNHYMKEYDYLQKEQPEIIQKALKEKHLGLIKTRRALTRIMERLRSIIKTFNEGHHHHHH”, the “soluble on expression in E. coli” value is “soluble”.
On to “MSLTLRQAIDLAAALLAEAGVDSARCDAEQLAAHLAGTDRGRLPLFEPPGDEFFGRYRDIVTARARRVPLQHLIGTVSFGPVVLHVGPGVFVPRPETEAILAWATAQSLPARPLIVDACTGSGALAVALAQHRANLGLKARIIGIDDSDCALDYARRNAAGTPVELVRADVTTPRLLPELDGQVDLMVSNPPYIPDAAVLEPEVAQHDPHHALFGGPDGMTVISAVVGLAGRWLRPGGLFAVEHDDTTSSSTVDLVSSTKLFVDVQARKDLAGRPRFVTAMRWGHLPLAGENGAIDPRQRRCRAKREGHHHHHH”, for which the “soluble on expression in E. coli” value is listed as “soluble”.
For the sequence “MGSDKIHHHHHHMQPYYWESAHGNFGDDLNLWLWDFLMPGFRDVHPETLLVGVGTVLNRALLPEGQHKLVIGSGFGYGSLPDMSRPEEWDIRSVRGPLTAKALGLPPEKGVIDPAVMLADMPEFQKLPKLYKKSFVPHWESAVAGVWASIVPKVGLTYIDPCGEAKAVIRQILQSEVIIAESMHGAIIADALRVPWVAVSTSASINSFKWNDWASTLGVTYKPLRVPLSSRAEAQIKGESFWGMSFKNHQPAPENPNDLAVDAAVLEQARGPKQTGLRTAVKQILAGPAMLNLWKASQAEPQLSRDSVLQERKARFLEVIEGVRRDYGIAAVS”, the “soluble on expression in E. coli” value is reported as “not soluble”.
For “MVKSAVLGFPRIGKNRELKKATEAYWSGKTSAEELLATAKQLRLEHWKLQKAQGVDIIPSNDFSLYDQIMDHSFSFNVIPPRYRLSGLSSLDTYFAMGRGMQRAATADKAAVDVPAGEMVKWFDSNYHFLRPEVSEETDFKLSSTKALDEFLEAKEAGIITRPVLVGPVTYLFIAKAAKGSSIKPIELLPKLLPVYVELIKKLTEAGAEYIQIDEPILTLDLPQEILASYKEAYETLGKIGKLILTTYFGSLQSNADVLKGLPIAGVHVDVVRAPENLDRALAVLGENQIISVGVVSGRNIWKTDFQKATAIIEKAISAVGSERVQVASSSSILHIPHSLSGEDQINPEIKRWFAFAVEKCAELAILTKAANDGPASVRAELEANAADCKARAESPITNVEAVRERQSKVTPQMHERKSPFETRYAKQQASLKLPLFPTTTIGSFPQTKEIRVTRNRFAKGLISQEEYDAFIRKEISDVVKFQEEVGLDVLVHGEPERNDMVQYFGERMEGFVFTVNGWVQSYGSRCVRPPIIVGDVYRPAPMTVKESQYAQSITSKPMKGMLTAPITILRWSFPRDDVHDSVQAQQIALGLRDEVLDLEKAGIKVIQCDEPALREGLPLRRAEWDEYLKWAIDAFRLATAAVQDDTQIHSHFCYSDFNDIFDAIQRLDADVVSIENSKSDMKLLNVLSRYTSCIGPGLFDIHSPRVPPVSEFKERIDAIVKHVPKDHLWLNPDCGLKTRGWPETTADLKNMIAAAREAREQYA”, the “soluble on expression in E. coli” value is given as “soluble”.
The same measure for “MEGAVIKVIGLGGAGNNAVNRMIEAGLSGVEFIAANTDAQVLAKSLADHRIQLGEKLTRGLGAGANPEIGEKAALEAEDLIAEALEGADLVFITAGMGGGTGTGSAPVVADIAKRLGALTVAVVTRPFSFEGPKRMRAAEEGIKKLKERVDAMVVVQNDRLLSAVDKKMTLKDAFLIADRVLYHGVKGITDVINLPGLINVDFADVKALLEGAGQVLMGIGAGRGENRVEEAAKSAIHSPLLERSIEGAKRLLLNVVGSEELSLMEAAEVVERIREATGHEDVDILYGVTYDERAQDELRVILIAAGFAESTVVPRPARPVDFPTGHVDLTNYDIPAFIRYGDGDYPPRRGN”: “soluble”; for “MTTTPYDIIGKEALYDMIDYFYTLVEKDERLNHLFPGDFAETSRKQKQFLTQFLGGPNIYTEEHGHPMLRKRHMDFTITEFERDAWLENMQTAINRAAFPQGVGDYLFERLRLTANHMVNS”: “not soluble”.
On to “GMILKTNLFGHTYQFKSITDVLAKANEEKSGDRLAGVAAESAEERVAAKVVLSKMTLGDLRNNPVVPYETDEVTRIIQDQVNDRIHDSIKNWTVEELREWILDHKTTDADIKRVARGLTSEIIAAVTKLMSNLDLIYGAKKIRVIAHANTTIGLPGTFSARLQPNHPTDDPDGILASLMEGLTYGIGDAVIGLNPVDDSTDSVVRLLNKFEEFRSKWDVPTQTCVLAHVKTQMEAMRRGAPTGLVFQSIAGSEKGNTAFGFDGATIEEARQLALQSGAATGPNVMYFETGQGSELSSDAHFGVDQVTMEARCYGFAKKFDPFLVNTVVGFIGPEYLYDSKQVIRAGLEDHFMGKLTGISMGCDVCYTNHMKADQNDVENLSVLLTAAGCNFIMGIPHGDDVMLNYQTTGYHETATLRELFGLKPIKEFDQWMEKMGFSENGKLTSRAGDASIFLK”, for which the “soluble on expression in E. coli” value was “soluble”.
Regarding “WLSRSERYIPMMREVLRKEGLPEDLVYLAMIESGFTPHAVSVASAVGPWQFISGTGKRYDLRIDQWIDERRDPLKSTVAAAMYLKELYSLFNQDWYLAAAGYNAGENKILRAIDKYNTRDFWEISKGSYLKRETKDYVPKLLAAAIIAKEPARYGFADVAYLPPIEFD”, the “soluble on expression in E. coli” value is listed as “not soluble”.
As to “MAHHHHHHMYKLVLIRHGESTWNKENRFTGWVDVDLTEQGNREARQAGQLLKEAGYTFDIAYTSVLKRAIRTLWHVQDQMDLMYVPVVHSWRLNERHYGALSGLNKAETAAKYGDEQVLVWRRSYDTPPPALEPGDERAPYADPRYAKVPREQLPLTECLKDTVARVLPLWNESIAPAVKAGKQVLIAAHGNSLRALIKYLDGISDADIVGLNIPNGVPLVYELDESLTPIRHYYLGDQEAIAKAQAAVAQQGKSAA”, the “soluble on expression in E. coli” value is listed as “soluble”.
With “MGSDKIHHHHHHMKATKRIAEATQESLHRIFTIAEAPDSTLGRLEQEMSQNLVGFLNNHIVASKNALTDIEQDFINARIPEQPEFVSDHMHHLLDKLVAQSVHTSSPSFIGHMTSALPSFILPLSKLMVGLNQNLVKVETSKAFTPLERQVLGMMHNLVYQHDDVFYKNWMHSAEHSLGAFCSGGTVANITALWVARNKLLKADGDFRGVAREGLHRAMRHYGYQDLAILVSDRGHYSLKKSADILGIGQENVIAIPTDEHNKIDCQKLADKCQQLAAQNIKVLAIVGVAGTTETGNIDPLDKIAEIAQQNQCHFHVDAAWGGATLLSNKYRPLLKGIEQADSVTIDAHKQMYVPMGAGLVIFKDPASVSAIEHHAEYILRKGSKDLGSHTLEGSRPGMAMLVYSSLHIISRPGYEMLINQAIEKAEYFADIIHQHDDFELITRPELCLLTYRYAPKSVQALLARNDDEANKSVNMLLGKLTKFIQKRQREDGRSFVSRTRIEVSRYGGEKVIVFRVVLANPLTTKEILQGILQEQCQLAQESEQFLPELLQAAK”, the “soluble on expression in E. coli” value is listed as “not soluble”.
